In US20070060537:

B1: GST-hPOSH1-139 (protein)
chain: MDESALLDLLECPVCLERLDASAKVLPCQHTFCKRCLLGIVGSRNELRCPECRTLVGSGVEELPSNILLVRLLDGIKQRPWKPGPGGGSGTNCTNALRSQSSTVANCSSKDLQSSQGGQQPRVQSWSPPVRGIPQLPCA
B2: POSH # 176 (1-269) gst fusion (protein)
chain: MDESALLDLLECPVCLERLDASAKVLPCQHTFCKRCLLGIVGSRNELRCPECRTLVGSGVEELPSNILLVRLLDGIKQRPWKPGPGGGSGTNCTNALRSQSSTVANCSSKDLQSSQGGQQPRVQSWSPPVRGIPQLPCAKALYNYEGKEPGDLKFSKGDIIILRRQVDENWYHGEVNGIHGFFPTNFVQIIKPLPQPPPQCKALYDFEVKDKEADKDCLPFAKDDVLTVIRRVDENWAEGMLADKIGIFPISYVEFNSAAKQLIEWDKP
B3: POSH #178 (1-361) gst fusion (protein)
chain: MDESALLDLLECPVCLERLDASAKVLPCQHTFCKRCLLGIVGSRNELRCPECRTLVGSGVEELPSNILLVRLLDGIKQRPWKPGPGGGSGTNCTNALRSQSSTVANCSSKDLQSSQGGQQPRVQSWSPPVRGIPQLPCAKALYNYEGKEPGDLKFSKGDIIILRRQVDENWYHGEVNGIHGFFPTNFVQIIKPLPQPPPQCKALYDFEVKDKEADKDCLPFAKDDVLTVIRRVDENWAEGMLADKIGIFPISYVEFNSAAKQLIEWDKPPVPGVDAGECSSAAAQSSTAPKHSDTKKNTKKRHSFTSLTMANKSSQASQNRHSMEISPPVLISSSNPTAAARISELSGLSCSAPSQVHIST

Columns and labels:
[1] = molecular target: His6-UbcH13/Uev1a, Q13404
[2] = molecular target: E2 Ubch5c from bacteria, P61077
E2 Ubch5c from bacteria, P61077, sequence (P61077 whole entry): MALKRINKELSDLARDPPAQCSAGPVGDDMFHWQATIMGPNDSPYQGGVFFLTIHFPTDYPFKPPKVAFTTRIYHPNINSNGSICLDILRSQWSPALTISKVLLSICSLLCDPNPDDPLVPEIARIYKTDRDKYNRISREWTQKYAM

His6-UbcH13/Uev1a, Q13404, sequence (chain, as listed by the source, chain 1 of 2): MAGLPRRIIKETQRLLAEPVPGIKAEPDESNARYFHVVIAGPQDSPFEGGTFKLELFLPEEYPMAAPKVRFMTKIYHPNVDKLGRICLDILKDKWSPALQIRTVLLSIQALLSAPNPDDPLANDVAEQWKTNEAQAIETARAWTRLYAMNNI
His6-UbcH13/Uev1a, Q13404, sequence (Q13404 other isoform, or with tags, fused parts or gaps, chain 2 of 2): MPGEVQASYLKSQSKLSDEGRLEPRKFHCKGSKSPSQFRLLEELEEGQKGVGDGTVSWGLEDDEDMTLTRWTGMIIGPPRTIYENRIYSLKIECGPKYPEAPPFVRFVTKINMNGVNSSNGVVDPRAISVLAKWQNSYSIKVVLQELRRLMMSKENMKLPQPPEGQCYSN
His-UbcH6, P51965, sequence (P51965 whole entry): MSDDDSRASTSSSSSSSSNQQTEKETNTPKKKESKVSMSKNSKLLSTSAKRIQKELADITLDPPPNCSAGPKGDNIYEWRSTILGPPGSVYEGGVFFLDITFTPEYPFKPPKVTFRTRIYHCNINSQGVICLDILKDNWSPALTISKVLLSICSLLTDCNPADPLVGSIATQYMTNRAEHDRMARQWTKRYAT
GST-UbcH5a, P51668, sequence (P51668 whole entry): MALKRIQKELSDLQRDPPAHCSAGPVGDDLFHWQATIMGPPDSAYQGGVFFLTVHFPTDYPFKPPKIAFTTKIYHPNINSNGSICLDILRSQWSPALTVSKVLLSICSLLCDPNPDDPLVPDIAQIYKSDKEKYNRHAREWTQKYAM
GST-UbcH5c, P61077, sequence (P61077 whole entry): as the sequence (P61077 whole entry) above

Row | Protein | self-ubiquitination of hPOSH (high molecular weight ubiquitin-biotin conjugates, streptavidin blot) (GST-UbcH5a, P51668) | self-ubiquitination of hPOSH (high molecular weight ubiquitin-biotin conjugates, streptavidin blot) (GST-UbcH5c, P61077) | self-ubiquitination of hPOSH (high molecular weight ubiquitin-biotin conjugates, streptavidin blot) (His-UbcH6, P51965) | self-ubiquitination of hPOSH (high molecular weight ubiquitin-biotin conjugates, streptavidin blot) [1] | in-vitro self-ubiquitination of hPOSH (anti-ubiquitin immunoblot) [2]
1 | B1 | conjugation of ubiquitin to hPOSH was supported by four E2s, UbCH13/Uevla, UBCH5a, UBCH5c and UBCH6 | conjugation of ubiquitin to hPOSH was supported by four E2s, UbCH13/Uevla, UBCH5a, UBCH5c and UBCH6 | conjugation of ubiquitin to hPOSH was supported by four E2s, UbCH13/Uevla, UBCH5a, UBCH5c and UBCH6 | conjugation of ubiquitin to hPOSH was supported by four E2s, UbCH13/Uevla, UBCH5a, UBCH5c and UBCH6 | –
2 | B2 | – | – | – | – | Ub-hPOSHconjugates, detected as high molecular weight adducts only in reactions containing E1, E2 and ubiquitin
3 | B3 | – | – | – | – | Ub-hPOSHconjugates, detected as high molecular weight adducts only in reactions containing E1, E2 and ubiquitin
